Results published in patent US20040248211A1, “ICAM-related protein” (priority 1992, published 2004).

How the values were obtained:
[1] = tested on: PBMC; assay: PBMC activation markers, immobilized antibody plus low dose anti-CD3; format: cell-based, human; conditions: immobilized antibody 10 μg/well plus anti-CD3 0.025 μg/well
Procedure: Ten μg of anti-ICAM-R monoclonal antibodies ICR-1.1 or ICR-4.2 (or control monoclonal antibodies to HLA Class I; Serotec, Oxford, England) were added per well of 96-well flat bottom tissue culture plates either in the presence or absence of anti-CD3 antibody initially added at 0.025 μg/well and washed to remove unbound antibody. Freshly obtained PBMC were immediately added (2×10^5 cells/well). The cells were then incubated for a total of either 16 hours or 3 days at which time the cells were removed and washed 2 times in ice cold FACS buffer. Two×10^5 cells were then resuspended in 50 μl ice cold FACS buffer, and 5 μl of FITC-conjugated anti-CD69, anti-transferrin receptor, anti-IL-2 receptor antibody or anti-FITC conjugated control Ig was added. The cells were incubated at 4° C. for 30 minutes and then washed 2 times in 0.5 ml ice cold FACS buffer. After the final wash the cells were resuspended in 0.5 ml FACS buffer and fluorescence determined by FACScan analysis. […] The effect was more pronounced with antibody ICR-1.1. Similar results were also obtained after 16 hours in culture.

[2] = biological target: T1, Protein 3 (ICAM-R domains 1-3 fused to ICAM-1) (Homo sapiens, UniProt P05362+P32942, A326V/A340P/A352Q/A353P/D347N/D369N/D382A/E323K/E366P/E384Q/F374S/F385L/G339H/H327S/L386I/M337E/N363K/P354L/P357R/Q343K/Q356P/Q361L/Q393E/R388K/S322R/S330T/S335K/S367E/S390Q/S391T/T325E/T331E/V342A/V392R); assay: FACS binding to COS cell transfectants; conditions: antibody 5.0 ug/ml
T1 construct: domains of ICAM-R (residues 1 to 291) fused to ICAM-1 (residues 317 to 532); ICAM-1 residues 317 to 532 (fusion partner in the same polypeptide); expressed in transfected cells; host or cells: COS cells, plasmid pcDNAAmp.RD1-3.1D4-5
T1 sequence (P32942+P05362 fused with the stated changes): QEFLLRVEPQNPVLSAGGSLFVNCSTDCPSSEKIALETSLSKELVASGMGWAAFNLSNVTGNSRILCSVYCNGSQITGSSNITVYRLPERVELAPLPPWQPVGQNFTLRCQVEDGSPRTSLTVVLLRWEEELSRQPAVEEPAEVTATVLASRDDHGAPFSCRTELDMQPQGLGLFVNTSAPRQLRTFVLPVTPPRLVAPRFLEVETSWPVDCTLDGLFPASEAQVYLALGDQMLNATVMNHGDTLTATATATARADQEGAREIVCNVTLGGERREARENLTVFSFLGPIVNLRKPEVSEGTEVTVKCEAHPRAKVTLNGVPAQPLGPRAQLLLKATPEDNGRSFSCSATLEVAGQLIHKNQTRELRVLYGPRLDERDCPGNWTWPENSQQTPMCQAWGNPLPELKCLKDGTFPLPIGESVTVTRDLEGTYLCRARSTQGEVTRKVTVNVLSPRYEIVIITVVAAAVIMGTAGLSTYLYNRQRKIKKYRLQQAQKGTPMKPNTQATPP
From the text: FIG. 7 is a diagram of the chimeric proteins whose construction is outlined below. Protein number 1 contains the amino-terminal immunoglobulin-like domain of ICAM-R (residues 1 to 93) fused to ICAM-1 (residue 117 to 532). Protein number 2 contains the first two amino terminal immunoglobulin-like domains of ICAM-R (residues 1 to 190) fused to ICAM-1 (residues 216 to 532). Protein number 3 contains the first three immunoglobulin-like domains of ICAM-R (residues 1 to 291) fused to ICAM-1 (residues 317 to 532).
For the anti-ICAM-R monoclonal antibody binding assay, COS cells transfected with constructs encoding the ICAM-R chimeric proteins or control constructs were removed from the plates by EDTA treatment and aliquoted at 2.5×10^5 cells per well in a 96-well round bottom plate. Cells were washed 3 times with ice cold washing buffer (PBS containing 1% BSA and 0.05% sodium azide). Anti-ICAM-R monoclonal antibody was applied at 5.0 ug/ml in 50 ul final volume and incubated on ice for 30 minutes. Cells were then washed three times with cold washing buffer and incubated with the FITC labeled secondary antibody (sheep anti-mouse IgG F(ab′)2) at a 1:100 dilution on ice for 30 minutes in dark in 50 ul final volume. After the incubation, cells were washed again for three times in the ice cold washing buffer and resuspended in 200 ul of 1% paraformaldehyde. The samples were analyzed on a Becton-Dickinson FACScan instrument. Results of the assay are given below in Table 5 as percent positive COS cell transfectants, wherein MOPC 21 (IgG1) and UPC 10 (IgG2a) are isotype matched controls, 18E3D is an ICAM-1 specific monoclonal antibody and ICR-1.1 to ICR-9.2 are ICAM-R specific monoclonal antibodies. The reactivities of monoclonal antibodies ICR-1.1 through ICR-9.2 were assayed in a different experiment than monoclonal antibodies ICR-12.1 through ICR-17.1.

[3] = tested on: SKW3 T cells; assay: Homotypic aggregation assay, SKW3; format: cell-based, human; conditions: after four hours, Ig and Fab′ at 1 μg/ml
Procedure: Aggregation assays were done in duplicate, with and without addition of PMA (50 ng/ml). 3×10^5 cells in RPMI 1640 medium with 10% fetal calf serum were added in a flat-bottomed 96-well microtest plate. When one antibody was tested in an experiment, 50 μl of purified antibody or hybridoma supernatant were added to the wells (PMA was added at the same time to selected wells). When two antibodies were tested in the same experiment, the antibodies were added sequentially to the cells at room temperature and incubated for 30 minutes each (incubation for 15 minutes at 37° C. produced the same results), and then the cells were incubated at 37° C. […] After incubation with the antibody or antibodies, cells were uniformly resuspended and then incubated at 37° C. for 4 to 24 hours. Aggregation scoring was done with an inverted microscope. In each experiment, the efficacy of the PMA stimulation was checked in parallel by stimulating Raji cells with an equal amount of PMA and determining the amount of aggregation blockable by monoclonal antibodies to CD18, CD11 a, and ICAM-1 molecules.
To confirm that aggregation was induced by the anti-ICAM-R antibodies ICR-2.1, ICR-1.1, and ICR-3.1 the aggregation assays were performed using both the whole immunoglobulin (ICR-1.1-Ig) and Fab′ fragments (ICR-1.1-Fab′) purified from the same anti-ICAM-R monoclonal antibody (ICR-1.1). […]

[4] = tested on: CD4+ T cells with allogeneic epidermal cells; assay: Langerhans cell alloantigen presentation to CD4+ T cells; format: cell-based, human; conditions: 50 μg antibody
Procedure: Blocking experiments were performed to determine whether the observed ICAM-R expression on Lcs was functionally important in antigen presentation. CD4^+ T cells were prepared from peripheral blood and 10^5 CD4^+ T cells were combined with 4×10^4 epidermal cells harvested from keratome biopsies of normal skin of an individual allogenic to the T cell donor. Proliferation was measured by ^3H thymidine uptake. Alloantigen presentation was unaffected by addition of 50 μg IgG1 isotype control. […] Inhibition was 73% of that produced by addition of anti-LFA-1 (anti-CD11a) antibody.

| Molecule | PBMC activation marker expression after 16 hours [1] | PBMC activation marker expression after 3 days [1] | percent positive COS cell transfectants, Protein 3 [2] [%] | Aggregation [3] | inhibition relative to that produced by anti-LFA-1 (anti-CD11a) antibody [4] [%] | reduction in Lcs alloantigen-driven proliferative response of T cells [4] [%] |
| --- | --- | --- | --- | --- | --- | --- |
| ICR-1.1: anti-ICAM-R monoclonal antibody, IgG2a, domain 1, ATCC HB 11053 (antibody, V domains shown) VH: QVQLQQSGAELAKPGASVKMSCKASGYTFTVYWMHWVKQRPGQGLEWIGYINPNTDYTEYNQRFQDKATLTADKSSSTAYMQLSSLTSEDSAVYYCARWGGNSYGLDYWGQGTSVTVSS VL: QIVLTQSPALMSASPGEKVTMTCSASSSVSYIYWYQQKPRSSPKPWIYLTSNLASGVPARFSGSGSGASYSLTISIMEAEDAATYYCQQWKSIPLTFGAGTKLELK | induced expression of CD69, but not the transferrin receptor | significant upregulation of both the transferrin and IL-2 receptors | 52.71 | 3 (50 to 100% cells were in loose clusters) | – | – |
| ICR-8.1: anti-ICAM-R monoclonal antibody, IgG1, domain 1, ATCC HB 11232 (antibody, V domains shown) VH: EIQLQQTGPELVKPGASVKISCKASGYSFTDCIILWVKQSHGKGLEWIGKINPYFGTTTYNLKFKGKATLTVDKSSSTAHMQLNSLTSEDSAVYYCARKEAYPDAMDYWGQGTSVTVSS VL: DAVMTQTPLSLPVSLGDQASISCRSSQSLVHSNGDTYLHWYLQKPGQSPQLLIYKVSNRFSGVPDRFSGSGSGTDFTLKLSRVEAEDLGVYFCSQSTHVPYTFGGGTKLEIK | – | – | – | – | 73 | 47 |
